In US20020197647A1 (ROCKEFELLER UNIVERSITY, published 2002):

Biological target: T1, c-Jun residues 1-104 (Rattus norvegicus (Rat), UniProt P17325 1-101, labeled with 35S by in vitro translation)
T1 construct: In vitro translated fragment; also called N-terminal region of c-Jun
T1 sequence: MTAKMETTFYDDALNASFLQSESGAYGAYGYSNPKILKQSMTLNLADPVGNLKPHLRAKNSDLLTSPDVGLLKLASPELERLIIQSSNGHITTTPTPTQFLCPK
Assay: GST pull-down of 35S-labeled in vitro translated c-Jun fragment

binding result: no binding
B1: GST-Stat3 (1-154) (other)
chain: MAQWNQLQQLDTRYLKQLHQLYSDTFPMELRQFLAPWIESQDWAYAASKESHATLVFHNLLGEIDQQYSRFLQESNVLYQHNLRRIKQFLQSRYLEKPMEIARIVARCLWEESRLLQTAATAAQQGGQANHPTAAVVTEKQQMLEQHLQDVRKR
notes: GST is placed N-terminal because of the pGEX vector; not shown: Glutathione S-transferase (GST) fusion partner of vector pGEX-5X-1 (Pharmacia)
